Consider 1 molecule from doi:10.1101/2021.10.22.465432 (bioRxiv, 2021).

The test has as its target T1, Drosha (mouse (endogenous in N2A), UniProt Q5HZJ0 1-1373).
T1 sequence: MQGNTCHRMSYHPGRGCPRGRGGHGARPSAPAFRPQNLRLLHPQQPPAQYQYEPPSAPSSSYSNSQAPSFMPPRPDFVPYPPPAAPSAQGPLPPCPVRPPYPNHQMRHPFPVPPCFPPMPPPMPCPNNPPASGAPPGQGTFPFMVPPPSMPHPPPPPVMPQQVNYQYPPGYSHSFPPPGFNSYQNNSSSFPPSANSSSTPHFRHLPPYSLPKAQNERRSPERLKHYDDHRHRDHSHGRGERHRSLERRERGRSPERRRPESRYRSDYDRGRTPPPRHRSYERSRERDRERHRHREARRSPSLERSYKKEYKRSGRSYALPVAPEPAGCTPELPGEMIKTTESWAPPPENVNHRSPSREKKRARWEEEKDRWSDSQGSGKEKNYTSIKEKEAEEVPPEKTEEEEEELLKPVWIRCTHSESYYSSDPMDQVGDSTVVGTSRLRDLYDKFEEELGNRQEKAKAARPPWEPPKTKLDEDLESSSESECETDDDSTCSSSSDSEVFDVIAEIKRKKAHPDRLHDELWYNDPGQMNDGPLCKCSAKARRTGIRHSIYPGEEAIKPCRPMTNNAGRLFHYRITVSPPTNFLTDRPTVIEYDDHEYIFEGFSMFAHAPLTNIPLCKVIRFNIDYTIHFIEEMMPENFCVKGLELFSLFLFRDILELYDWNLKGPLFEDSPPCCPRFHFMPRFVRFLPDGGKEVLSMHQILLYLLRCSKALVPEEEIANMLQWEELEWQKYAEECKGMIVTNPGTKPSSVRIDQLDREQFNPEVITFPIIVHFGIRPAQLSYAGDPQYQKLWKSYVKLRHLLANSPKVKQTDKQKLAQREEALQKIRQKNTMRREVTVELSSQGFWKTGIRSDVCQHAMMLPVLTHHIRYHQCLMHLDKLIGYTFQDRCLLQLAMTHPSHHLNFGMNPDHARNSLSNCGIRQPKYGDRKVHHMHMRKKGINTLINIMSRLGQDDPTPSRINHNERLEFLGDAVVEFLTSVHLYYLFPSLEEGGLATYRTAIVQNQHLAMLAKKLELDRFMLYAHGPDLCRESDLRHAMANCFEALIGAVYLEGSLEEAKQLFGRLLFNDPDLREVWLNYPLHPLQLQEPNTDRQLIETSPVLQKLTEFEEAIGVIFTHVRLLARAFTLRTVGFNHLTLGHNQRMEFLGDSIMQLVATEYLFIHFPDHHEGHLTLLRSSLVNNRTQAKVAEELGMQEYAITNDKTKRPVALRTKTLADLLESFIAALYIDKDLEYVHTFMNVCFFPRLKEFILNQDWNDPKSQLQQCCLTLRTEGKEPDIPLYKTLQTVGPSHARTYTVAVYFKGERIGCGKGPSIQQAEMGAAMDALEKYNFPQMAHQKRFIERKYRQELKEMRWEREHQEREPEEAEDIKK
Kind of test: co-IP.

B1: Safb1-ΔRE-HA (natural protein)
chain: MAETLSGLGDASAAGAAAVSSAASETGTRRLSDLRVIDLRAELKKRNLDSSGNKSVLMERLKKAIEDEGGNPDEIEVTSECNKKMPKRPSKGRKPEDEGVEDNGLEENSGDGQEDVETSLENLQDMDMMDISVLDEADIDNGSVADCVEEEEEATLPEGLADSTELVEGDLKGLPEQLQEHAIDDKDTVNNVDTSSSDFTMLQEMEEASLEPENEKILDILGETCKSEPVKEEGSELEQPFAQATSSVGPDRKLAEEEDLFESCGHPEEEEEEEEEDQEEEQEEEGDLALASSSKSESPSTRCQWSEADAPLAVVKREPADAPGGGTGMDREPVGLEEPVEQSSTAAQLPEATSQELVRAPTAALSPEPQDSKEDVKKFAFDACNDVPAPPKESSASEGADQKMSSVEEDSDTKRLSREEKGRSSCGRNFWVSGLSSTTRATDLKNLFSRYGKVVGAKVVTNARSPGARCYGFVTMSTAEEATKCISHLHKTELHGKMISVEKAKSEPTGKRVPDRRDGDSKKEKASTSDRSANLKREEKGERKDDAKKTDHREREELRRQQELRYEQERRPAVRRPYEVDGRRDDAYWPEAKRAALDDRYHSDFSRQDRFHDFDHRDRGRYPNHSVDRREGSRSMMGDREGQHYPERHGGPERHGRDSRDGWGYGSNKRLSEGRGLPPPPRRDWGEHGRRLEDDRAWQGTADGGMMERDHKRWQGGERSMSGHSGPGHMMNRGGMSGRGSFAPGGASRGHVIPRGGMQAGFGGQSRGSRPSDARFTRRY
For the molecule B1, the “fold reduction in binding against Safb1 wild type” value is 5.7 fold.
